Target: T1, FLAG-ubiquitin, recombinant (UniProt P0CG47 1-76)
T1 construct: ubiquitin, the cut product of a ubiquitin precursor; source: bought: Boston Biochem
Experiment: SPR; Biacore 3000, 25°C; FLAG-ubiquitin immobilised on CM-5 chip by amine cross-linking; increasing amounts of GST-ING1 injected; blank reference subtracted; three experiments; steady-state affinity and kinetic data
Settings: both partners purified

Kd: ~0.1 µM
B1: GST-ING1b, full length, recombinant (natural protein, human, UniProt Q9UK53-2 1-279, looked up)
chain: MLSPANGEQLHLVNYVEDYLDSIESLPFDLQRNVSLMREIDAKYQEILKELDECYERFSRETDGAQKRRMLHCVQRALIRSQELGDEKIQIVSQMVELVENRTRQVDSHVELFEAQQELGDTAGNSGKAGADRPKGEAAAQADKPNSKRSRRQRNNENRENASSNHDHDDGASGTPKEKKAKTSKKKKRSKAKAEREASPADLPIDPNEPTYCLCNQVSYGEMIGCDNDECPIEWFHFSCVGLNHKPKGKWYCPKCRGENEKTMDKALEKSKKERAYNR
notes: ING1 isoform p33ING1b, full length
